No end group written: not given here. fluorescein = fluorescein label on the C-terminus of the peptide; Me3 = trimethyl-lysine
Key:
[1] = target: the histone peptide containing H3K4me3; assay: ITC + fluorescence polarisation
[2] = target: PHF2 (1-451), containing both the PHD and Jumonji domains (human, UniProt O75151 1-451); assay: fluorescence polarisation
Sequence of PHF2 (1-451), containing both the PHD and Jumonji domains (human, UniProt O75151 1-451) (O75151 1-451): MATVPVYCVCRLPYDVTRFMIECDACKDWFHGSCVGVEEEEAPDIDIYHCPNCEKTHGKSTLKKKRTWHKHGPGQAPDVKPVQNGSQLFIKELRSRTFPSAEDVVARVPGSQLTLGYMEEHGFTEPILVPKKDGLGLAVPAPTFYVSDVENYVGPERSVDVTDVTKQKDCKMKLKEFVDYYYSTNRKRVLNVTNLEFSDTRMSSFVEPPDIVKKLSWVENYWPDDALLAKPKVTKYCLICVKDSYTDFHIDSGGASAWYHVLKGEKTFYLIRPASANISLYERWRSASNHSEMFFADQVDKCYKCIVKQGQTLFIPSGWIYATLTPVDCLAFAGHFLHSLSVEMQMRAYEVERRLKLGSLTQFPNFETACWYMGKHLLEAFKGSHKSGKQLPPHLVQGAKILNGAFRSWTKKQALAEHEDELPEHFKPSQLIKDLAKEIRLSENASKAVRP

Sequence of PHF2 (1-451), containing both the PHD and Jumonji domains (from UniProt O75151 1-451) (domain or fragment) (O75151 1-451): as above

Row | Molecule | Kd [1] [µM] | binding result [2]
1 | PHF2 (1-451), containing both the PHD and Jumonji domains (from UniProt O75151 1-451) (domain or fragment) | 0.23 to 0.27 | 
2 | ARTK(Me3)QTARKSTGGKA-fluorescein (peptide, UniProt P68431 2-16, looked up) [H3(1-15)K4me3 peptide, C-terminal fluoresceinated] |  | binds
